{
  "source": "patent US20170037110A1",
  "about": "(IMMATICS BIOTECHNOLOGIES, published 2017)",
  "target": "T1, HLA-A*02:01 (human)",
  "T1 construct": "monomers captured on streptavidin plates; also called MHC class I",
  "assay": "UV peptide exchange ELISA",
  "summary_of_the_method": "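Peptide-MHC complexes formed by UV-triggered exchange of a cleavable peptide for the test peptide, with stabilised complexes indicating binding. Exchange products diluted 100 fold onto streptavidin-coated wells, 1h at 37° C.; HRP anti-β2m (2 μg/ml), TMB, absorbance at 450 nm gives exchange yield.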",
  "note": "Non-standard residues stand in square brackets, D forms with d. No end group written: not given here. pS = N[C@@H](COP(=O)(O)O)C(=O)O",
  "data": [
    {"binder": "KLKPGDLVGV", "values": [
      {"measurement": "peptide exchange yield", "result": "50 to 75", "unit": "%"}
    ]},
    {"binder": "ALQDRVPLA", "values": [
      {"measurement": "peptide exchange yield", "result": "50 to 75", "unit": "%"}
    ]},
    {"binder": "YLLEQIKLIEV", "values": [
      {"measurement": "peptide exchange yield", "result": "≥ 75", "unit": "%"}
    ]},
    {"binder": "SLLSVSHAL", "values": [
      {"measurement": "peptide exchange yield", "result": "50 to 75", "unit": "%"}
    ]},
    {"binder": "SMAELDIKL", "values": [
      {"measurement": "peptide exchange yield", "result": "50 to 75", "unit": "%"}
    ]},
    {"binder": "SLDSTLHAV", "values": [
      {"measurement": "peptide exchange yield", "result": "50 to 75", "unit": "%"}
    ]},
    {"binder": "KLLEGQVIQL", "values": [
      {"measurement": "peptide exchange yield", "result": "50 to 75", "unit": "%"}
    ]},
    {"binder": "ALWDLAADKQTL", "values": [
      {"measurement": "peptide exchange yield", "result": "≥ 75", "unit": "%"}
    ]},
    {"binder": "ILLSVPLLVV", "values": [
      {"measurement": "peptide exchange yield", "result": "20 to 50", "unit": "%"}
    ]},
    {"binder": "FLLAHGLGFLL", "values": [
      {"measurement": "peptide exchange yield", "result": "≥ 75", "unit": "%"}
    ]},
    {"binder": "VLMDRLPSLL", "values": [
      {"measurement": "peptide exchange yield", "result": "≥ 75", "unit": "%"}
    ]},
    {"binder": "RLLGEEVVRVLQA", "values": [
      {"measurement": "peptide exchange yield", "result": "50 to 75", "unit": "%"}
    ]},
    {"binder": "RLLPPGAVVAV", "values": [
      {"measurement": "peptide exchange yield", "result": "50 to 75", "unit": "%"}
    ]},
    {"binder": "SLIEKLWQT", "values": [
      {"measurement": "peptide exchange yield", "result": "20 to 50", "unit": "%"}
    ]},
    {"binder": "KMIETDILQKV", "values": [
      {"measurement": "peptide exchange yield", "result": "≥ 75", "unit": "%"}
    ]},
    {"binder": "ALLDQTKTLAESAL", "values": [
      {"measurement": "peptide exchange yield", "result": "50 to 75", "unit": "%"}
    ]},
    {"binder": "SILDRDDIFV", "values": [
      {"measurement": "peptide exchange yield", "result": "50 to 75", "unit": "%"}
    ]},
    {"binder": "TLCDVILMV", "values": [
      {"measurement": "peptide exchange yield", "result": "50 to 75", "unit": "%"}
    ]},
    {"binder": "ALMYESEKVGV", "values": [
      {"measurement": "peptide exchange yield", "result": "50 to 75", "unit": "%"}
    ]},
    {"binder": "LLMENAERV", "values": [
      {"measurement": "peptide exchange yield", "result": "20 to 50", "unit": "%"}
    ]},
    {"binder": "ALWETEVYI", "values": [
      {"measurement": "peptide exchange yield", "result": "50 to 75", "unit": "%"}
    ]},
    {"binder": "SLSELEALM", "values": [
      {"measurement": "peptide exchange yield", "result": "50 to 75", "unit": "%"}
    ]},
    {"binder": "SLLPLSHLV", "values": [
      {"measurement": "peptide exchange yield", "result": "50 to 75", "unit": "%"}
    ]},
    {"binder": "YLPAVFEEV", "values": [
      {"measurement": "peptide exchange yield", "result": "50 to 75", "unit": "%"}
    ]},
    {"binder": "ALAEVAAMENV", "values": [
      {"measurement": "peptide exchange yield", "result": "50 to 75", "unit": "%"}
    ]},
    {"binder": "VLPPDTDPA", "values": [
      {"measurement": "peptide exchange yield", "result": "20 to 50", "unit": "%"}
    ]},
    {"binder": "ALAAPDIVPAL", "values": [
      {"measurement": "peptide exchange yield", "result": "50 to 75", "unit": "%"}
    ]},
    {"binder": "YLYNEGLSV", "values": [
      {"measurement": "peptide exchange yield", "result": "50 to 75", "unit": "%"}
    ]},
    {"binder": "YLVEDIQHI", "values": [
      {"measurement": "peptide exchange yield", "result": "50 to 75", "unit": "%"}
    ]},
    {"binder": "IMLKGDNITL", "values": [
      {"measurement": "peptide exchange yield", "result": "50 to 75", "unit": "%"}
    ]},
    {"binder": "NLMEMVAQL", "values": [
      {"measurement": "peptide exchange yield", "result": "20 to 50", "unit": "%"}
    ]},
    {"binder": "LLAPTPYIIGV", "values": [
      {"measurement": "peptide exchange yield", "result": "50 to 75", "unit": "%"}
    ]},
    {"binder": "VLIDEVESL", "values": [
      {"measurement": "peptide exchange yield", "result": "50 to 75", "unit": "%"}
    ]},
    {"binder": "FLDPGGPMMKL", "values": [
      {"measurement": "peptide exchange yield", "result": "50 to 75", "unit": "%"}
    ]},
    {"binder": "KLYEAVPQL", "values": [
      {"measurement": "peptide exchange yield", "result": "50 to 75", "unit": "%"}
    ]},
    {"binder": "ILANDGVLLAA", "values": [
      {"measurement": "peptide exchange yield", "result": "50 to 75", "unit": "%"}
    ]},
    {"binder": "RLYSGISGLEL", "values": [
      {"measurement": "peptide exchange yield", "result": "50 to 75", "unit": "%"}
    ]},
    {"binder": "FLIEPEHVNTV", "values": [
      {"measurement": "peptide exchange yield", "result": "20 to 50", "unit": "%"}
    ]},
    {"binder": "KLYPQLPAEI", "values": [
      {"measurement": "peptide exchange yield", "result": "50 to 75", "unit": "%"}
    ]},
    {"binder": "KLLNKIYEA", "values": [
      {"measurement": "peptide exchange yield", "result": "≥ 75", "unit": "%"}
    ]},
    {"binder": "RLL[pS]AAENFL", "note": "[RLLJAAENFL]", "values": [
      {"measurement": "peptide exchange yield", "result": "50 to 75", "unit": "%"}
    ]},
    {"binder": "ALAELYEDEV", "values": [
      {"measurement": "peptide exchange yield", "result": "50 to 75", "unit": "%"}
    ]},
    {"binder": "LLLPDQPPYHL", "values": [
      {"measurement": "peptide exchange yield", "result": "50 to 75", "unit": "%"}
    ]},
    {"binder": "VMNDRLYAI", "values": [
      {"measurement": "peptide exchange yield", "result": "50 to 75", "unit": "%"}
    ]},
    {"binder": "YLLDDGTLVV", "values": [
      {"measurement": "peptide exchange yield", "result": "≥ 75", "unit": "%"}
    ]},
    {"binder": "VLFDSESIGIYV", "values": [
      {"measurement": "peptide exchange yield", "result": "50 to 75", "unit": "%"}
    ]},
    {"binder": "LLPDLEFYV", "values": [
      {"measurement": "peptide exchange yield", "result": "≥ 75", "unit": "%"}
    ]},
    {"binder": "VLLSIYPRV", "values": [
      {"measurement": "peptide exchange yield", "result": "50 to 75", "unit": "%"}
    ]},
    {"binder": "SAFPFPVTV", "values": [
      {"measurement": "peptide exchange yield", "result": "50 to 75", "unit": "%"}
    ]},
    {"binder": "FLFPHSVLV", "values": [
      {"measurement": "peptide exchange yield", "result": "50 to 75", "unit": "%"}
    ]},
    {"binder": "SLLEQGKEPWMV", "values": [
      {"measurement": "peptide exchange yield", "result": "50 to 75", "unit": "%"}
    ]},
    {"binder": "YLLNDASLISV", "values": [
      {"measurement": "peptide exchange yield", "result": "50 to 75", "unit": "%"}
    ]},
    {"binder": "GLPRFGIEMV", "values": [
      {"measurement": "peptide exchange yield", "result": "50 to 75", "unit": "%"}
    ]},
    {"binder": "ALWKQLLEL", "values": [
      {"measurement": "peptide exchange yield", "result": "50 to 75", "unit": "%"}
    ]}
  ]
}
